The target of experiment [1] is multimeric recombinant RBD protein (SARS-CoV-2 S protein residues 331-589 linked to the trimerization region of bacteriophage T4 and six histidines) (SARS-CoV-2 (Wuhan strain) | bacteriophage T4) (UniProt P0DTC2). Briefly: SEC; Superdex 200 column (30 x 1 cm) in TBS, 0.4 mL/min; calibrated with BSA (66 and 132 kDa), carbonic anhydrase (30 kDa) and beta-amylase (200 kDa); 135 kDa fractions pooled and re-applied.

Experiment [2] shares this target. Briefly: cross-linking.

Values joined by “and” are separate entries in the source; they are usually repeats but may differ in a detail not shown here. Equal values may be shown once.

With “multimeric recombinant RBD protein (SARS-CoV-2 S protein residues 331-589 linked to the trimerization region of bacteriophage T4 and six histidines) (from UniProt P0DTC2 331-589)”, the stoichiometry N is 3 in experiment [1]; 3 and 6 in experiment [2].
